A word on the Kd: it is the constant that tells how readily two partners part at equilibrium.

The test system of assay [1] is seven fluorescein-labeled pTyr-containing peptides. As to the kind of experiment: in-solution fluorescence polarization binding assay, set of seven peptides. As to conditions: average over seven peptides, relative to the wild type of the same SH2 domain. As for the experimental part:
(§1) Each peptide was synthesized on the TentaGel amide resin (INTAVIS Inc.) and N-terminally labeled with fluorescein using NHS-fluorescein (Thermo Fisher Scientific). Each of the 13 variant and the wild-type SH2 domain was produced by overexpression in the Escherichia coli BL21(DE3) strain cultured in LB media (EMD Chemicals). Expression was induced by 0.3 mM isopropyl β-D-1-thiogalactopyranoside (IPTG), and the cell culture was incubated for 5 hours at 37° C. The cells were harvested by centrifuge, and broken on ice, in buffer solution containing 20 mM sodium phosphate, 0.1 M NaCl, 20 mM imidazole, 1 mg/ml lysozyme and 1% Triton-X 100, adjusted at pH 7.8. Affinity purification was performed with the Ni-NTA agarose resin (Qiagen Inc.), according to the manufacturer's instruction. The purified material was dialyzed against phosphate-buffered saline (PBS), pH 7.4, at 4° C. overnight. Measurements of fluorescence polarization were conducted by titrating the SH2 domain concentration, while keeping the peptide concentration constant. Kd values were calculated with the GraphPad Prism software, by assuming the one-site binding model (GraphPad Software).
(§2) The determined Kd values of interaction between the 14 SH2 domains (including the wild-type) and seven peptides were listed in FIG. 7(a).
The wild-type and variant Src SH2 domains were expressed in E. coli BL21(DE3) strain grown in the LB media, by inducing protein expression with 0.3 mM IPTG, and incubating the cell culture at 30° C. for six hours. Cells were harvested by centrifuge, and broken on ice in buffer solution containing 20 mM sodium phosphate, 0.1 M NaCl, 20 mM imidazole, 1 mg/ml lysozyme, 1% Triton-X 100, adjusted at pH 7.8. Affinity purification was performed with the Ni-NTA, agarose resin, according to the manufacturer's instruction. […]
Fluorescence polarization assay was conducted to determine Kd values of the interaction between the wild-type or variant Src SH2 domain and seven fluorescein-labeled pTyr-containing peptides (FIG. 9a).
A general note: In fluorescence polarisation assays a small probe gives low polarisation when free and higher when bound to something large.

Assay [2] deals with fluorescein-GGpYGG peptide (SEQ ID NO: 23). As to the kind of experiment: fluorescence polarization binding assay, GGpYGG peptide.
The target of a further assay is T1, EGFR (Homo sapiens, UniProt P00533).
T1 construct: endogenous in cells; host or cells: HEK 293
As to the kind of experiment: immunoprecipitation of GFP-fused SH2 domains with EGFR in HEK 293 cells. It counts as cell-based. As to conditions: GFP-fusion expressed in HEK 293 cells, EGF 100 ng/ml, anti-GFP and anti-EGFR antibodies. From the text:
The three variant SH2 domains mentioned in the previous sentence were dubbed as 8V/10A/15L-substituted SH2 domains, or the TrM SH2 domains, in the following descriptions, as well as in FIG. 11 and FIG. 12. The wild-type (Wt) and TrM SH2 domains, subcloned into the pEGFPC2 vector, were expressed in the HEK 293 cells as a GFP-fusion protein. Methods used in this and the following sections are described below.
Anti-GFP rabbit polyclonal antibody was purchased from Sigma-Aldrich. Anti-EGFR rabbit polyclonal antibody was purchased from Millipore. Anti-p44/42 MAPK (Erk1/2) mouse monoclonal antibody, and anti-phospho-p44/42 MAPK (Thr202/Tyr204) mouse monoclonal antibody were purchased from Cell Signaling. HEK 293 cells were grown in Dulbecco's modification of Eagle's medium (DMEM, Sigma-Aldrich) supplemented with 10% fetal bovine serum (FBS, SAFC Biosciences), 50 units/ml penicillin and 50 μg/ml streptomycin (GIBCO Invitrogen Corp.) in a humidified atmosphere of 5% CO2 in air at 37° C. EGF (Invitrogen) at a final concentration of 100 ng/ml was added to the medium at the indicated time point. Transient transfections were carried out with jet-PEI (PolyPlus-Transfection; Illkirch, France) according to manufacturer's instruction.
HEK 293 cells were transfected with the SH2 domain construct subcloned in the pEGFPC2 vector, and incubated in serum-containing full medium for 24 h followed by serum-starvation for 16 h and then EGF (100 ng/ml) treatment for 10 min, pervanadate treatment for 10 min. The whole cell lysates were prepared and subjected to IB analysis to detect phosphorylated Erk and total Erk.
HEK 293 cells were lysed with cold lysis buffer (1% NP-40, 50 mM Tris-HCl pH 7.4, 150 mM NaCl, 2 mM EDTA, 50 mM NaF, 10% Glycerol and protease inhibitor cocktail diluted at 1:1000). After centrifugation at 13,000*g for 15 min, the supernatants were collected. After clearance of the lysate with appropriate pre-immune serum and protein G (Roche), immunoprecipitation (IP) and immunoblotting (IB) were performed. […]

The test system of assay [3] is phosphorylated proteins (ALK) from H370 cell lysate. The assay is described as follows: GST pulldown, H370 cell lysate with ALK activation by mAb46. It counts as binding, human. The following applies: GST fusion, compared to the Wt. As for the experimental part: The Wt human Src (hSrc) SH2, the TrM hSrc SH2, and Wt Rous sarcoma virus Src (vSrc) SH2 domains were prepared, respectively, as GST tag fusion proteins. The vSrc SH2 domain is almost identical to the hSrc SH2 domain (there are three-residue differences in the SH2 domain region, and the differences are located outside of the target-binding surface). 5 μg of the GST-tagged SH2 domain was incubated with 500 μg of H370 cell lysate treated with or without the ALK activation antibody mAb-46 at room temperature for 30 min. 20 μl of glutathione sepharose beads was then added for another 30 minincubation at room temperature. As a positive control, the anti-pTyr antibody P-Tyr-100 (Cell Signaling, #9411) was used for immunoprecipitation. 4 μl of the P-Tyr-100 antibody was incubated with 500 μg H370 cell lysate treated with or without the ALK activation antibody mAb-46 for 2 hours at 4° C. Next, 20 μl protein G beads was added for another incubation for two hours at 4° C. The glutathione beads or protein G beads were washed with 1×PBS (phosphate buffered saline) three times. The beads were added to 30 μl 2×SDS loading buffer and boiled for 10 min. The samples were resolved on an 8% Bis-Tris SDS-PAGE gel. The gel was applied to Western blotting to transfer the samples onto PVDF membrane (Millipore) and the proteins were probed with the P-Tyr-100 antibody. […]
Sequence of phosphorylated proteins (ALK) from H370 cell lysate (Q9UM73 1060-1620 limits assumed): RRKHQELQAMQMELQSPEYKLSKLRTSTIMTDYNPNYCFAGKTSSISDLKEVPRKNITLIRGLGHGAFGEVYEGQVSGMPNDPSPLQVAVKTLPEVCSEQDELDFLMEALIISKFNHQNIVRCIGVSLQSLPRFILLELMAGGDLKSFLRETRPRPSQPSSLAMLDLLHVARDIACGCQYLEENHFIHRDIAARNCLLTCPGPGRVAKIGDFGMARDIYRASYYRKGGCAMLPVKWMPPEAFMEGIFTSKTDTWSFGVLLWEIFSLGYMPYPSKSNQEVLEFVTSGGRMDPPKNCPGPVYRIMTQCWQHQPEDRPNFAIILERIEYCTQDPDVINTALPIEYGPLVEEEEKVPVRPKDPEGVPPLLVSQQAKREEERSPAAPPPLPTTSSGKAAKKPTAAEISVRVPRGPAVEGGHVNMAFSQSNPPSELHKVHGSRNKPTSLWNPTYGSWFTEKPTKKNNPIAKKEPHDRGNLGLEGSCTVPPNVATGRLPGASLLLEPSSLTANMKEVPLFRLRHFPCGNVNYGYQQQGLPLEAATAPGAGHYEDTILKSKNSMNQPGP

Assay [4] concerns tyrosine-phosphorylated proteins of U937 cell lysate. As to the kind of experiment: Far-Western blotting, pervanadate-treated U937 cell lysate. It counts as binding, human. As to conditions: GST fusion 3.5 μg/ml. The procedure:
The GST protein and GST-Src SH2 TrM were prepared as 3.5 μg/ml concentration in the TBS buffer (50 mM Tris-HCl pH 7.2, 137 mM NaCl). The cultured U937 cells were treated with or without 50 μM pervanadate in PBS for 10 min at 37° C. The cells were lysed in the buffer (0.5% NP-40, 50 mM HEPES pH 7.4, 1 mM magnesium chloride, 150 mMKCl) with sonication on ice, and supernatant was loaded on an SDS-PAGE gel for separation and following transfer to the PVDF membrane (Millipore). The membrane was blocked with 5% milk in TBS-T (0.5% Tween-20 in TBS) overnight at 4° C., and probed with 3.5 μg/ml GST proteins for 1 hour at room temperature. The membrane was washed with TBS-T, and incubated with anti-GST antibody-HRP (horseradish peroxidase) conjugate (Sigma, #A7340) for 1 hour at room temperature. The signal from HRP was detected as enhanced chemiluminescence on an X-ray film.

Another assay concerns A549 cells. As to the kind of experiment: cell viability after gold nanoparticle delivery of SH2 protein, EGF treatment, A549. It counts as cell-based. As to conditions: 100 ng/ml EGF, compared with the Wt SH2 domain. The procedure: (§3) The hexa-histidine-tagged SrcWt and TrM proteins were purified to homogeneity in 5 mM HEPES buffer (pH 7.6). 1 nM of gold nanoparticle was mixed with 100 nMWt or TrM variant protein. The MCF-7 and A549 cells were starved six hours before treatment. The cells were then treated with 100 ng/ml EGF for 20 hours. The nanoparticle-protein mixture was applied to cells. Cells were trypsinized and stained using 0.4% trypan blue (Sigma-Aldrich) and viable and total cell numbers were counted haemacytometer with the use of a microscope according to manufacturer's instruction.

For another assay, the system named is MCF-7 cells. As to the kind of experiment: cell viability after gold nanoparticle delivery of SH2 protein, EGF treatment, MCF-7. The assay is classed as cell-based. The following applies: MCF-7 (no EGF receptor), 100 ng/ml EGF. The procedure: as §3
The subject of assay [5] is non-phosphorylated fluorescein-GGYGG peptide (SEQ ID NO: 24). The assay is described as follows: fluorescence polarization binding assay, non-phosphorylated GGYGG peptide. As for the experimental part: as §1, §2
Assay [6] has as its system tyrosine-phosphorylated proteins from HeLa cell lysate. The assay is described as follows: GST pulldown assay, pervanadate-treated HeLa cell lysate. The following applies: GST fusion, compared to the Wt SH2 domain, 4G10 immunoblot. It counts as binding. The procedure: The wild-type (Wt) and triple mutant (TrM) Fyn SH2 domains (Ala^139-Gly^249) were respectively subcloned into the pETM30 vector (Dümmler, et al. Microb. Cell Fact. 4, 34 (2005)). The Fyn SH2 domain constructs contain a FLAG tag sequence ([…]) (SEQ ID NO: 27) at the C-terminus. To create the GST control vector, a stop codon was inserted after the GST tag sequence of the original pETM30 vector. The GST and GST-SH2 proteins were expressed in E. coli BL21(DE3). HeLa cells were treated with 50 μM pervanadate for 10 min at 37° C. HeLa cells were lysed on ice in lysis buffer containing 0.5% NP-40, 50 mM HEPES pH 7.4, 1 mM magnesium chloride, 150 mMKCl, and the COMPLETE protease inhibitor cocktail (Roche). The GST pulldown assay was conducted as described (Li et al. J. Biol. Chem. 278, 3852-3859 (2003)).

Sequence of non-phosphorylated fluorescein-GGYGG peptide (SEQ ID NO: 24) (as listed by the source): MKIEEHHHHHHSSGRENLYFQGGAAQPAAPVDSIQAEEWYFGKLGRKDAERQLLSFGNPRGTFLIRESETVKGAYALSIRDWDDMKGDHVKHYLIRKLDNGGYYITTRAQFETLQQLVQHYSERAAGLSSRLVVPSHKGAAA

B1: T8V/C10A/K15L: variant human Src SH2 domain, position 8 Val, position 10 Ala, position 15 Leu; SEQ ID NO:21 (protein)
chain: DSIQAEEWYFGKITRRESERLLLNAENPRGTFLVRESETVKGAYALSVSDFDNAKGLNVKHYLIRKLDSGGFYITSRTQFNSLQQLVAYYSKHADGLCHRLTTVCPTSK
modifications: Synthetic construct T8V/C10A/K15L
On to B1, for which, in assay [1], the “average affinity increase, Kd[wild-type] divided by Kd[variant]” value amounted to 238 fold. The molecule also returned a Kd in [2] of 510 nM. Further, the “binding to EGFR (immunoprecipitation)” value with EGFR was “strong binding”. Besides, the “capture of phosphorylated proteins from H370 cell lysate upon stimulation” value in [3] is reported as “substantially larger amount”. Further, the “detection of tyrosine-phosphorylated proteins by Far-Western blotting” value in assay [4] was “broad detection of tyrosine-phosphorylated proteins”. Moreover, in the assay on A549 cells, the “cell viability upon EGF treatment” value was “reduced cell variability”. Also, the “cell viability upon EGF stimulation” value with MCF-7 cells is reported as “did not significantly affect cell variability”.

B2: T8V/S10A/K15L: variant Fyn SH2 domain: Thr position 8 to Val, Ser position 10 to Ala, Lys position 15 to Leu; SEQ ID NO:17 (protein)
chain: APVDSIQAEEWYFGKLGRKDAERQLLSFGNPRGTFLIRESETVKGAYALSIRDWDDMKGDHVKHYLIRKLDNGGYYITTRAQFETLQQLVQHYSERAAGLCCRLVVPCHKG
modifications: Synthetic construct T8V/S10A/K15L
As to B2, the “average affinity increase, Kd[wild-type] divided by Kd[variant]” value in [1] is reported as 293 fold. The “binding to non-phosphorylated peptide” value in [5] is given as “did not show detectable binding”. Besides, in the assay with EGFR, the “binding to EGFR (immunoprecipitation)” value is recorded as “strong binding”. Besides, the “ability to bind tyrosine-phosphorylated proteins (GST pulldown)” value in assay [6] is reported as “enhanced ability”.

B3: T8I/S10A/K15L: variant Fyn SH2 domain; SEQ ID NO:16 (protein)
chain: APVDSIQAEEWYFGKLGRKDAERQLLSFGNPRGTFLIRESETIKGAYALSIRDWDDMKGDHVKHYLIRKLDNGGYYITTRAQFETLQQLVQHYSERAAGLCCRLVVPCHKG
modifications: Synthetic construct T8I/S10A/K15L
For B3, the “average affinity increase, Kd[wild-type] divided by Kd[variant]” value in assay [1] worked out at 86.4 fold.

B4: A8V/S10A/K15L: variant human Grb2 SH2 domain, Met55 to Pro158 with A8V, S10A, K15L substitutions; SEQ ID NO: 22 (protein)
chain: MKPHPWFFGKIPRAKAEEMLSKQRHDGAFLIRESESVPGDFALSVKFGNDVQHFLVLRDGAGKYFLWVVKFNSLNELVDYHRSTSVSRNQQIFLRDIEQVPQQP
modifications: Synthetic construct Grb2_triple
For the molecule B4, the “binding to EGFR (immunoprecipitation)” value with EGFR is recorded as “strong binding”.

The values are drawn from patent publication US10274499B2, “SH2 domain variants” (THE UNIVERSITY OF WESTERN ONTARIO, priority 2012, dated 2019).
